This is an account of results in PMC11857287.

Substrate in this data set: Nc1ncnc2c1ncn2[C@@H]1O[C@H](COP(=O)(O)OP(=O)(O)OP(=O)(O)OP(=O)(O)OC[C@H]2O[C@@H](n3cnc4c(N)ncnc43)[C@H](O)[C@@H]2O)[C@@H](O)[C@H]1O
The data set is described as follows: fluorescent ADP assay, Lineweaver-Burk. It counts as biochemical, Streptococcus pyogenes. The settings on record: Mg2+-dependent, heading states optimal conditions (optimum pH 7.0, 45 °C), 0.1 mg/mL enzyme. From the text: fluorescent ADP assay, Lineweaver-Burk on Sp-yqeK

B1: Sp-yqeK (Streptococcus pyogenes) (protein)
chain: MTYEDYLPYSRTELLAKIAEQMSPKRFKHVLGVEKAALSLAECYGCNPDKAGLAALLHDYAKECPDQVFLDLIDKYQLSPELAKWNNNVWHGMVGIYKIQEDLGLKDKDILRAIEIHTVGAAEMTLLDKVLYVADYIEEGRIFPLVDDARKIAKLDLNQAVAYETVNTVAYLASKAQPIFPQTLDTYNAFCSYLKEY
notes: pET28b (Nde I/Xho I), E. coli BL21(DE3), Ni-NTA purified; about 23 kDa; dimer in the asymmetric unit
Regarding B1, the Km was 216.4 ± 21.65 µM.

In general, Km refers to the substrate concentration at which the rate is half of its maximum.
